Paper doi:10.1101/2025.10.27.684836 (bioRxiv, 2025)

Legend:
[1] = molecular target: His-MBP-SALL4(QID-ZFC4) fusion protein (mouse); experiment: SEC-MALS
SEC-MALS = molecular target: the molecule itself; experiment: SEC-MALS
SALL4 QID-ZFC4 = molecular target: T1, SALL4 QID-ZFC4 (UniProt Q8BX22 201-240+870-940, internal_change); experiment: SPR
T1 sequence: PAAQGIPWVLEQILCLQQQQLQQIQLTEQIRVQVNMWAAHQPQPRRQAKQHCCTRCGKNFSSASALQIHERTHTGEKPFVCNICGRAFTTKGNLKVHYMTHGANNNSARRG

Molecule: His-MBP-SALL4(QID-ZFC4) fusion protein (domain or fragment)
- stoichiometry N [1]: 4

B1: recombinant SALL4 QID (192-237) peptide (domain or fragment, mouse, UniProt Q8BX22 192-237, looked up)
chain: GAEAPMAPMPAAQGIPWVLEQILCLQQQQLQQIQLTEQIRVQVNMW
- stoichiometry N (SEC-MALS): 4

B2: SPR probe, single ATATTA motif (dsDNA)
DNA 1: AGCAGGCCTAATATCGCAC
DNA 2: GTGCGATATTAGGCCTGCT
- binding result (SALL4 QID-ZFC4): binds
